In article PMC9071424, “Microarray screening reveals two non-conventional SUMO-binding modules linked to DNA repair by non-homologous end-joining” (Nucleic Acids Research, 2022):

Target: T1, XLF-6×His (human, UniProt Q9H9Q4 1-299)
T1 construct: XLF (NHEJ1), human, amplified from pGEX2TKP-XLF and subcloned into pHAT5; source: E. coli BL21-CodonPlus (DE3)-RIL, purified (HP His-trap, HiTrap Q HP)
Assay: BLI; XLF binding of XRCC4 1–164 and its mutants
Conditions: both partners purified

T1 sequence (Q9H9Q4 whole entry): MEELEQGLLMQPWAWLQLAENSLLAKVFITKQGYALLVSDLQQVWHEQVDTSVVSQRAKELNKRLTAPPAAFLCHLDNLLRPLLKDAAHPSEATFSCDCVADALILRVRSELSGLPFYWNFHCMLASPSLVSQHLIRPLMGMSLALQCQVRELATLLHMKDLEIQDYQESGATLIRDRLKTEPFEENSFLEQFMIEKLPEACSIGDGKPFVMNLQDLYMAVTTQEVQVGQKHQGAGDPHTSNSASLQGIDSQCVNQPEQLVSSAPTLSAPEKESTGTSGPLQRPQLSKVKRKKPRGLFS

B1: 6×His-XRCC4^1–164 (C-to-A) (domain or fragment, human, UniProt Q13426 1-164, looked up)
chain: MERKISRIHLVSEPSITHFLQVSWEKTLESGFVITLTDGHSAWTGTVSESEISQEADDMAMEKGKYVGELRKALLSGAGPADVYTFNFSKESAYFFFEKNLKDVSFRLGSFNLEKVENPAEVIRELIAYALDTIAENQAKNEHLQKENERLLRDWNDVQGRFEK
modifications: 15N-labelled where it was the observed protein in NMR
notes: pET-28a vector; also called XRCC4 head domain; not shown: 6×His, N-terminal, kept
binding result: binds
